Data taken from the supplement of paper PMC9112550, “Optimization of the antimicrobial peptide Bac7 by deep mutational scanning” (BMC Biology, 2022).

tested on: Escherichia coli TOP10; experiment: shrunken log2 fold change of peptide-encoding DNA abundance (4.5 h post-induction vs induction); higher = less antimicrobial activity (less host growth inhibition); conditions: time post-induction: 4.5 h; library: site-saturation at positions 5, 18, 19, 20
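Further: peptides expressed intracellularly from a pBAD plasmid library in pooled LB shake-flask culture, induced with 0.3% L-arabinose, DNA abundance read by NGS, three biological replicates, DESeq2 with apeglm shrinkage.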

| Sequence | shrunken log2 fold change |
| --- | --- |
| RRIRCRPPRLPRPRPRPGINPRP | -0.31 |
| RRIRSRPPRLPRPRPRPYRFPRP | -0.134 |
| RRIRVRPPRLPRPRPRPKKMPRP | -0.0803 |
| RRIRHRPPRLPRPRPRPINKPRP | -0.652 |
| RRIRSRPPRLPRPRPRPIVRPRP | -0.11 |
| RRIRNRPPRLPRPRPRPMCTPRP | -0.124 |
| RRIRDRPPRLPRPRPRPYWPPRP | -0.547 |
| RRIRSRPPRLPRPRPRPTPMPRP | 0.61 |
| RRIRERPPRLPRPRPRPDVRPRP | 0.0184 |
| RRIRVRPPRLPRPRPRPKEVPRP | 0.177 |
| RRIRNRPPRLPRPRPRPPTEPRP | 0.389 |
| RRIRMRPPRLPRPRPRPGMIPRP | -0.00139 |
| RRIRVRPPRLPRPRPRPTDKPRP | -0.0288 |
| RRIRCRPPRLPRPRPRPTLQPRP | 0.279 |
| RRIRDRPPRLPRPRPRPNYWPRP | -0.218 |
| RRIRNRPPRLPRPRPRPQLTPRP | -0.026 |
| RRIRNRPPRLPRPRPRPEWKPRP | 0.0303 |
| RRIRPRPPRLPRPRPRPINLPRP | -0.994 |
| RRIRVRPPRLPRPRPRPCYGPRP | -0.259 |
| RRIRERPPRLPRPRPRPLSKPRP | -0.579 |
| RRIRERPPRLPRPRPRPTHRPRP | 0.243 |
| RRIRFRPPRLPRPRPRPNAVPRP | -0.0327 |
| RRIRERPPRLPRPRPRPPCMPRP | -0.272 |
| RRIRPRPPRLPRPRPRPNQRPRP | 0.0736 |
| RRIRTRPPRLPRPRPRPLHIPRP | 0.0174 |

| Sequence | shrunken log2 fold change |
| --- | --- |
| RRIRIRPPRLPRPRPRPVNHPRP | -0.288 |
| RRIRERPPRLPRPRPRPNWKPRP | -0.0166 |
| RRIRDRPPRLPRPRPRPLLIPRP | 0.338 |
| RRIRDRPPRLPRPRPRPQVKPRP | -0.0431 |
| RRIRRRPPRLPRPRPRPINNPRP | -0.407 |
| RRIRYRPPRLPRPRPRPMMCPRP | 0.168 |
| RRIRGRPPRLPRPRPRPPPVPRP | 1.25 |
| RRIRNRPPRLPRPRPRPQSFPRP | -0.0341 |
| RRIRYRPPRLPRPRPRPVQFPRP | -0.00142 |
| RRIRWRPPRLPRPRPRPQVVPRP | -0.00458 |
| RRIRERPPRLPRPRPRPCRVPRP | -0.25 |
| RRIRGRPPRLPRPRPRPDERPRP | 0.104 |
| RRIRRRPPRLPRPRPRPSQHPRP | 0.0591 |
| RRIRYRPPRLPRPRPRPMGTPRP | -0.304 |
| RRIRKRPPRLPRPRPRPKLKPRP | 0.585 |
| RRIRMRPPRLPRPRPRPRAKPRP | 1.25 |
| RRIRYRPPRLPRPRPRPQVVPRP | -0.166 |
| RRIRARPPRLPRPRPRPDVLPRP | 0.579 |
| RRIRGRPPRLPRPRPRPMLYPRP | 0.322 |
| RRIRARPPRLPRPRPRPFEMPRP | 0.135 |
| RRIRARPPRLPRPRPRPSFTPRP | 0.582 |
| RRIRVRPPRLPRPRPRPRCEPRP | 0.133 |
| RRIRSRPPRLPRPRPRPADMPRP | 0.0296 |
| RRIRHRPPRLPRPRPRPVQGPRP | 0.207 |
| RRIRERPPRLPRPRPRPATAPRP | 0.147 |

| Sequence | shrunken log2 fold change |
| --- | --- |
| RRIRCRPPRLPRPRPRPDWTPRP | -0.268 |
| RRIRCRPPRLPRPRPRPAGEPRP | 0.598 |
| RRIRWRPPRLPRPRPRPSPIPRP | -0.0871 |
| RRIRMRPPRLPRPRPRPAGCPRP | 0.842 |
| RRIRARPPRLPRPRPRPIDMPRP | -0.0819 |
| RRIRTRPPRLPRPRPRPRIAPRP | 0.102 |
| RRIRPRPPRLPRPRPRPHYLPRP | -0.906 |
| RRIRNRPPRLPRPRPRPDLGPRP | 0.0328 |
| RRIRTRPPRLPRPRPRPDRMPRP | -0.0127 |
| RRIRLRPPRLPRPRPRPIACPRP | 0.0367 |
| RRIRMRPPRLPRPRPRPDEFPRP | 1.49 |
| RRIRLRPPRLPRPRPRPSYFPRP | -0.452 |
| RRIRDRPPRLPRPRPRPLMPPRP | 0.097 |
| RRIRIRPPRLPRPRPRPCIYPRP | -0.0179 |
| RRIRFRPPRLPRPRPRPGFHPRP | -0.416 |
| RRIRIRPPRLPRPRPRPPHCPRP | -0.391 |
| RRIRFRPPRLPRPRPRPNALPRP | -0.347 |
| RRIRRRPPRLPRPRPRPEWSPRP | 0.274 |
| RRIRWRPPRLPRPRPRPWSVPRP | -0.174 |
| RRIRPRPPRLPRPRPRPSESPRP | 0.000106 |
| RRIRVRPPRLPRPRPRPHEVPRP | -0.0408 |
| RRIRDRPPRLPRPRPRPVHMPRP | 0.111 |
| RRIRPRPPRLPRPRPRPFADPRP | 0.174 |
| RRIRGRPPRLPRPRPRPLMFPRP | 0.603 |
| RRIRYRPPRLPRPRPRPKMQPRP | -0.344 |
